Read-outs that look alike come from different tables or passages of the source.
Key:
[1] = biological target: T1, STING CTD (STINGΔ1-138, AA139-379), His-tag removed (human), Q86WV6; assay: AUC; conditions: remark: other sources report otherwise
T1 chain: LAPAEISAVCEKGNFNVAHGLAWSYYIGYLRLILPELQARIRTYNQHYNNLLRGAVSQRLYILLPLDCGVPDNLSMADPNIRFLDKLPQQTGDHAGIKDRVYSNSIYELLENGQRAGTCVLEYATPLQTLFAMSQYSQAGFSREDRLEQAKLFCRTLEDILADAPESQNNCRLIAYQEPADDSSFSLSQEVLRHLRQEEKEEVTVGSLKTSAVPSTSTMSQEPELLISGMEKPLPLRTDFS

[2] = biological target: the molecule itself; assay: SEC
[3] = biological target: T2, STING CTD WT (AA139-379) with His-tag (human), Q86WV6; assay: SEC; conditions: remark: other sources report otherwise
T2 chain: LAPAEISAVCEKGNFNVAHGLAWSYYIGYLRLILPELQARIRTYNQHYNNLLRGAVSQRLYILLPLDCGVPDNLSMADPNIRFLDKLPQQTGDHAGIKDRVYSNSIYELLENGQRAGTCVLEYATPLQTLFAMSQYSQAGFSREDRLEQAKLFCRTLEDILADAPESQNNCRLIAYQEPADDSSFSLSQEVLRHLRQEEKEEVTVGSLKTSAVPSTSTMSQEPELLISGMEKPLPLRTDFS

[4] = biological target: the molecule itself

Binder	stoichiometry N [2]	also measured
STING CTD (STINGΔ1-138, AA139-379), His-tag removed, Q86WV6 139-379 (domain or fragment) LAPAEISAVCEKGNFNVAHGLAWSYYIGYLRLILPELQARIRTYNQHYNNLLRGAVSQRLYILLPLDCGVPDNLSMADPNIRFLDKLPQQTGDHAGIKDRVYSNSIYELLENGQRAGTCVLEYATPLQTLFAMSQYSQAGFSREDRLEQAKLFCRTLEDILADAPESQNNCRLIAYQEPADDSSFSLSQEVLRHLRQEEKEEVTVGSLKTSAVPSTSTMSQEPELLISGMEKPLPLRTDFS	–	stoichiometry N [1]: 2
STING CTD K150A (domain or fragment, human, UniProt Q86WV6 139-379, looked up) LAPAEISAVCEAGNFNVAHGLAWSYYIGYLRLILPELQARIRTYNQHYNNLLRGAVSQRLYILLPLDCGVPDNLSMADPNIRFLDKLPQQTGDHAGIKDRVYSNSIYELLENGQRAGTCVLEYATPLQTLFAMSQYSQAGFSREDRLEQAKLFCRTLEDILADAPESQNNCRLIAYQEPADDSSFSLSQEVLRHLRQEEKEEVTVGSLKTSAVPSTSTMSQEPELLISGMEKPLPLRTDFS	2	–
STING CTD K150L (domain or fragment, human, UniProt Q86WV6 139-379, looked up) LAPAEISAVCELGNFNVAHGLAWSYYIGYLRLILPELQARIRTYNQHYNNLLRGAVSQRLYILLPLDCGVPDNLSMADPNIRFLDKLPQQTGDHAGIKDRVYSNSIYELLENGQRAGTCVLEYATPLQTLFAMSQYSQAGFSREDRLEQAKLFCRTLEDILADAPESQNNCRLIAYQEPADDSSFSLSQEVLRHLRQEEKEEVTVGSLKTSAVPSTSTMSQEPELLISGMEKPLPLRTDFS	2	–
STING CTD WT (AA139-379) with His-tag, Q86WV6 139-379 (domain or fragment) LAPAEISAVCEKGNFNVAHGLAWSYYIGYLRLILPELQARIRTYNQHYNNLLRGAVSQRLYILLPLDCGVPDNLSMADPNIRFLDKLPQQTGDHAGIKDRVYSNSIYELLENGQRAGTCVLEYATPLQTLFAMSQYSQAGFSREDRLEQAKLFCRTLEDILADAPESQNNCRLIAYQEPADDSSFSLSQEVLRHLRQEEKEEVTVGSLKTSAVPSTSTMSQEPELLISGMEKPLPLRTDFS	–	stoichiometry N [3]: 2
STING CTD K150R (domain or fragment, human, UniProt Q86WV6 139-379, looked up) LAPAEISAVCERGNFNVAHGLAWSYYIGYLRLILPELQARIRTYNQHYNNLLRGAVSQRLYILLPLDCGVPDNLSMADPNIRFLDKLPQQTGDHAGIKDRVYSNSIYELLENGQRAGTCVLEYATPLQTLFAMSQYSQAGFSREDRLEQAKLFCRTLEDILADAPESQNNCRLIAYQEPADDSSFSLSQEVLRHLRQEEKEEVTVGSLKTSAVPSTSTMSQEPELLISGMEKPLPLRTDFS	2	–
STINGΔ1-148 (AA149-379) (domain or fragment, human, UniProt Q86WV6 149-379, looked up) EKGNFNVAHGLAWSYYIGYLRLILPELQARIRTYNQHYNNLLRGAVSQRLYILLPLDCGVPDNLSMADPNIRFLDKLPQQTGDHAGIKDRVYSNSIYELLENGQRAGTCVLEYATPLQTLFAMSQYSQAGFSREDRLEQAKLFCRTLEDILADAPESQNNCRLIAYQEPADDSSFSLSQEVLRHLRQEEKEEVTVGSLKTSAVPSTSTMSQEPELLISGMEKPLPLRTDFS	–	stoichiometry N [4]: 2

Reference: PMC3654694 (Immunity, 2012)
